Patent publication US20220235118A1 (IMMUNOME, published 2022)

Columns and labels:
[1] = target: Spike protein D614G (SARS-CoV-2/human/Germany/BavPat 1/2020) on pseudovirus or live virus (SARS-CoV-2, UniProt P0DTC2 14-1273); test: cell-based or functional assay
[2] = target: Spike protein of the U.K. (B.1.1.7, Alpha) variant on pseudovirus or live virus (SARS-CoV-2, UniProt P0DTC2 14-1273); test: cell-based or functional assay
[3] = target: T1, SARS-CoV-2 Spike S1 domain D614G (SARS-CoV-2, UniProt P0DTC2 16-685); test: HTRF, soluble S1 construct
T1 construct: domain: S1

[4] = target: T2, SARS-CoV-2 Spike S1 domain A222S, D614G (SARS-CoV-2, UniProt P0DTC2 16-685); test: HTRF, soluble S1 construct
T2 construct: domain: S1; also called Spanish (A222S, D614G)

[5] = target: T3, SARS-CoV-2 Spike S1 domain K417N, E484K, N501Y, D614G (SARS-CoV-2, UniProt P0DTC2 16-685); test: HTRF, soluble S1 construct
T3 construct: domain: S1; also called S. African (K417N, E484K, N501Y, D614G); B.1.351

[6] = target: T4, SARS-CoV-2 Spike S1 domain ΔHV69/70, N501Y, D614G (SARS-CoV-2, UniProt P0DTC2 16-685); test: HTRF, soluble S1 construct
T4 construct: domain: S1; also called U.K. partial (ΔHV69/70, N501Y D614G)

[7] = target: T5, SARS-CoV-2 Spike S1 domain ΔHV69/70, ΔY144, N501Y, A570D, D614G, P681H (SARS-CoV-2, UniProt P0DTC2 16-685); test: HTRF, soluble S1 construct
T5 construct: domain: S1; also called U.K. (B.1.1.7); DHV69/70, DY144, N501Y, A570D, D614G, P681H

[8] = target: T6, SARS-CoV-2 Spike S1 domain ΔHV69/70, Y453F, D614G (SARS-CoV-2, UniProt P0DTC2 16-685); test: HTRF, soluble S1 construct
T6 construct: domain: S1; also called Denmark (ΔHV69/70, Y453F, D614G); DHV69/70, Y453F, D614G

[9] = target: T7, SARS-CoV-2 Spike RBD N439K (SARS-CoV-2, UniProt P0DTC2 319-541); test: HTRF, soluble RBD construct
T7 construct: domain: RBD

[10] = target: T8, SARS-CoV-2 Spike RBD E406Q (SARS-CoV-2, UniProt P0DTC2 319-541); test: HTRF, soluble RBD construct
T8 construct: domain: RBD

[11] = target: T9, SARS-CoV-2 Spike RBD K417N (SARS-CoV-2, UniProt P0DTC2 319-541); test: HTRF, soluble RBD construct
T9 construct: domain: RBD

[12] = target: T10, SARS-CoV-2 Spike RBD N501Y (SARS-CoV-2, UniProt P0DTC2 319-541); test: HTRF, soluble RBD construct
T10 construct: domain: RBD

[13] = target: T11, SARS-CoV-2 Spike RBD Y453F (SARS-CoV-2, UniProt P0DTC2 319-541); test: HTRF, soluble RBD construct
T11 construct: domain: RBD

[14] = target: T12, SARS-CoV-2 Spike RBD A352S (SARS-CoV-2, UniProt P0DTC2 319-541); test: HTRF, soluble RBD construct
T12 construct: domain: RBD

[15] = target: T13, SARS-CoV-2 Spike RBD A475V (SARS-CoV-2, UniProt P0DTC2 319-541); test: HTRF, soluble RBD construct
T13 construct: domain: RBD

[16] = target: T7, SARS-CoV-2 Spike RBD N439K; test: HTRF, soluble RBD construct; remark: listed apart in the source
[17] = target: T8, SARS-CoV-2 Spike RBD E406Q; test: HTRF, soluble RBD construct; remark: listed apart in the source
[18] = target: T9, SARS-CoV-2 Spike RBD K417N; test: HTRF, soluble RBD construct; remark: listed apart in the source
[19] = target: T10, SARS-CoV-2 Spike RBD N501Y; test: HTRF, soluble RBD construct; remark: listed apart in the source
[20] = target: T11, SARS-CoV-2 Spike RBD Y453F; test: HTRF, soluble RBD construct; remark: listed apart in the source
[21] = target: T12, SARS-CoV-2 Spike RBD A352S; test: HTRF, soluble RBD construct; remark: listed apart in the source
[22] = target: T13, SARS-CoV-2 Spike RBD A475V; test: HTRF, soluble RBD construct; remark: listed apart in the source
[23] = target: T14, SARS-CoV-2 Spike RBD E484Q (SARS-CoV-2, UniProt P0DTC2 319-541); test: HTRF, soluble RBD construct
T14 construct: domain: RBD

[24] = target: T15, SARS-CoV-2 Spike RBD E484K (SARS-CoV-2, UniProt P0DTC2 319-541); test: HTRF, soluble RBD construct
T15 construct: domain: RBD

[25] = target: T16, SARS-CoV-2 Spike RBD L452R (SARS-CoV-2, UniProt P0DTC2 319-541); test: HTRF, soluble RBD construct
T16 construct: domain: RBD

[26] = target: T17, SARS-CoV-2 Spike RBD K444R (SARS-CoV-2, UniProt P0DTC2 319-541); test: HTRF, soluble RBD construct
T17 construct: domain: RBD

[27] = target: T18, SARS-CoV-2 Spike RBD F486S (SARS-CoV-2, UniProt P0DTC2 319-541); test: HTRF, soluble RBD construct
T18 construct: domain: RBD

B1: PR193_00018 (antibody, V domains shown)
VH: EVQLVESGGGLVQPGGSLRLSCSASGFTFSSFWMSWVRQAPGKGLEWVATIREDGSEKYYVDSVKGRFSISRDNAKNSLYLQMNSLRAEDTAVYYCARSKWLRGSFDYWGQGTLVTVSS
VL: NFMLTQPHSVSESPGKTVTISCTRRSGSIASNYVQWYQQRPGSAPTTVIYEDNQRPSGVPDRFSGSIDSSSNSASLTISGLQTEDEADYYCQSYDSSNPPGASWVFGGGTKLTVL
notes: also called IMM20184; IMM200184
IC50, neutralization of live virus in a virus internalization assay [1]: 33.8 nM
IC80, neutralization of live virus in a virus internalization assay [1]: 126 nM
IC90, neutralization of live virus in a virus internalization assay [1]: 236 nM
IC50, neutralization of live virus in a virus internalization assay [2]: 43.3 nM
IC80, neutralization of live virus in a virus internalization assay [2]: > 394 nM
IC90, neutralization of live virus in a virus internalization assay [2]: > 394 nM
EC50 [3]: 0.0397 nM
EC50 [4]: 0.0269 nM
EC50 [5]: 0.0267 nM
EC50 [6]: 0.0143 nM
EC50 [7]: 0.0455 nM
EC50 [8]: 0.0316 nM
fold over background [9]: 4.43 fold over background
fold over background [10]: 6.58 fold over background
fold over background [11]: 3.64 fold over background
fold over background [12]: 4.92 fold over background
fold over background [13]: 4.74 fold over background
fold over background [14]: 4.62 fold over background
fold over background [15]: 4.42 fold over background
EC50 [16]: 0.051 nM
EC50 [17]: 0.0261 nM
EC50 [18]: 0.0437 nM
EC50 [19]: 0.0398 nM
EC50 [20]: 0.0494 nM
EC50 [21]: 0.0263 nM
EC50 [22]: 0.0279 nM
EC50 [23]: 0.0216 nM
EC50 [24]: 0.0205 nM
EC50 [25]: 0.0436 nM
EC50 [26]: 0.0194 nM
EC50 [27]: 0.0221 nM

B2: PR194_00232 (antibody, V domains shown)
VH: EVQLVESGGGLVQPGGSLRLSCSASGFTVSSNYMSWVRQAPRKGLEWVSVIYAGGSTFYADSVKGRFTISRDNSKNTLLLQMNSLRAEDTAVYYCARDRGGYLDYWGQGTLVTVSS
VL: DIQMTQSPSSLSASVGDRVTITCRASQGISNYLAWYQQKPGKVPKLLIYAASTLQSGVPSRFSGSGSGTDFTLTISSLQPEDVATYYCQKYNSAPGLTFGGGTKVEIK
notes: also called IMM20190; PR194_00190
IC50, neutralization of live virus in a virus internalization assay [1]: 0.35 nM
IC80, neutralization of live virus in a virus internalization assay [1]: 1.43 nM
IC90, neutralization of live virus in a virus internalization assay [1]: 3.06 nM
IC50, neutralization of live virus in a virus internalization assay [2]: 2.66 nM
IC80, neutralization of live virus in a virus internalization assay [2]: 13.7 nM
IC90, neutralization of live virus in a virus internalization assay [2]: > 394 nM
EC50 [3]: 0.0627 nM
EC50 [4]: 0.0491 nM
EC50 [5]: 0.23 nM
EC50 [6]: 0.396 nM
EC50 [7]: > 0.5 nM
EC50 [8]: 0.0472 nM
fold over background [9]: 5.95 fold over background
fold over background [10]: 8.81 fold over background
fold over background [11]: 2.25 fold over background
fold over background [12]: 4.3 fold over background
fold over background [13]: 5.94 fold over background
fold over background [14]: 6.75 fold over background
fold over background [15]: 7.47 fold over background
EC50 [16]: 0.0689 nM
EC50 [17]: 0.0677 nM
EC50 [18]: > 0.5 nM
EC50 [19]: 0.279 nM
EC50 [20]: 0.0646 nM
EC50 [21]: 0.0219 nM
EC50 [22]: 0.0724 nM
EC50 [23]: 0.0524 nM
EC50 [24]: 0.0334 nM
EC50 [25]: 0.0318 nM
EC50 [26]: 0.0258 nM
EC50 [27]: 0.0334 nM

B3: PR200_00622 (antibody, V domains shown)
VH: QVQLVESGGGVVQPGRSLRLSCTASGFTFSTYGMHWVRQAPGKGLEWVAVISYDGSSKHYAESVKGRFTISRDNSNNTLYLQMNRLRAEDTAVYYCARDGQPPGWGNYFDYWGQGTLVTVAS
VL: SYVLTQPPSVSVAPGKTARITCGGNGIGSKSVYWYQQKPGQAPEVVVYDDSDRPSGIPERFSGSNSGNTATLTISRVEAGDEADYYCQVWDSSSDPWVFGGGTKLTVL
notes: also called IMM20253; PR200_00253
IC50, neutralization of live virus in a virus internalization assay [1]: 39.4 nM
IC80, neutralization of live virus in a virus internalization assay [1]: 151 nM
IC90, neutralization of live virus in a virus internalization assay [1]: 289 nM
IC50, neutralization of live virus in a virus internalization assay [2]: 1.38 nM
IC80, neutralization of live virus in a virus internalization assay [2]: 61.1 nM
IC90, neutralization of live virus in a virus internalization assay [2]: 219 nM
EC50 [3]: 0.0624 nM
EC50 [4]: 0.0449 nM
EC50 [5]: 0.0248 nM
EC50 [6]: 0.0216 nM
EC50 [7]: 0.0624 nM
EC50 [8]: 0.0664 nM
fold over background [9]: 5.05 fold over background
fold over background [10]: 7.6 fold over background
fold over background [11]: 4.68 fold over background
fold over background [12]: 5.11 fold over background
fold over background [13]: 4.67 fold over background
fold over background [14]: 5.14 fold over background
fold over background [15]: 5.22 fold over background
EC50 [16]: 0.0534 nM
EC50 [17]: 0.0406 nM
EC50 [18]: 0.0674 nM
EC50 [19]: 0.0585 nM
EC50 [20]: 0.0626 nM
EC50 [21]: 0.0317 nM
EC50 [22]: 0.033 nM
EC50 [23]: 0.0238 nM
EC50 [24]: 0.0316 nM
EC50 [25]: 0.034 nM
EC50 [26]: 0.0261 nM
EC50 [27]: 0.0259 nM
